This note sets out measurements from US20230314420A1 (Genentech, published 2023).

To fix the notation:
B1: Pertuzumab (antibody, human IgG1, kappa, V domains shown)
VH: EVQLVESGGGLVQPGGSLRLSCAASGFTFTDYTMDWVRQAPGKGLEWVADVNPNSGGSIYNQRFKGRFTLSVDRSKNTLYLQMNSLRAEDTAVYYCARNLGPSFYFDYWGQGTLVTVSS
VL: DIQMTQSPSSLSASVGDRVTITCKASQDVSIGVAWYQQKPGKAPKLLIYSASYRYTGVPSRFSGSGSGTDFTLTISSLQPEDFATYYCQQYYIYPYTFGQGTKVEIKR
notes: also called rhuMAb 2C4; Pertuzumab IV
B2: Vorhyaluronidase Alfa (recombinant human hyaluronidase rHuPH20) (enzyme, UniProt P38567 36-482, looked up)
chain: LNFRAPPVIPNVPFLWAWNAPSEFCLGKFDEPLDMSLFSFIGSPRINATGQGVTIFYVDRLGYYPYIDSITGVTVNGGIPQKISLQDHLDKAKKDITFYMPVDNLGMAVIDWEEWRPTWARNWKPKDVYKNRSIELVQQQNVQLSLTEATEKAKQEFEKAGKDFLVETIKLGKLLRPNHLWGYYLFPDCYNHHYKKPGYNGSCFNVEIKRNDDLSWLWNESTALYPSIYLNTQQSPVAATLYVRNRVREAIRVSKIPDAKSPLPVFAYTRIVFTDQVLKFLSQDELVYTFGETVALGASGIVIWGTLSIMRSMKSCLLLDNYMETILNPYIINVTLAAKMCSQVLCQEQGVCIRKNWNSSDYLHLNPDNFAIQLEKGGKFTVRGKPTLEDLEQFSEKFYCSCYSTLSCKEKADVKDTDAVDVCIADGVCIDAFLKPPMETEEPQIFY
notes: Also the only protein in the two rHuPH20-containing formulation buffers tested as samples; also called rHuPH20-Containing FDC LD Formulation Buffer; rHuPH20-Containing FDC MD Formulation Buffer
B3: PEG-Filgrastim (other, UniProt P09919-2 31-204, looked up)
chain: TPLGPASSLPQSFLLKCLEQVRKIQGDGAALQEKLCATYKLCHPEELVLLGHSLGIPWAPLSSCPSQALQLAGCLSQLHSGLFLYQGLLQALEGISPELGPTLDTLQLDVADFATTIWQQMEELGMAPALQPTQGAMPAFASAFQRRAGGVLVASHLQSFLEVSYRVLRHLAQP
modifications: pegylated; site not stated
notes: Specificity control
B4: Filgrastim (other, UniProt P09919-2 31-204, looked up)
chain: B3 chain
notes: Specificity control
B5: Pertuzumab coat reagent: recombinant HER2 extracellular domains I, II, III fused to a murine Fc; domain IV (containing the trastuzumab epitope) is depleted (Fc fusion)
chain: KYALADASLKMADPNRFRGKDLPVLDQLLESTQVCTGTDMKLRLPASPETHLDMLRHLYQGCQVVQGNLELTYLPTNASLSFLQDIQEVQGYVLIAHNQVRQVPLQRLRIVRGTQLFEDNYALAVLDNGDPLNNTTPVTGASPGGLRELQLRSLTEILKGGVLIQRNPQLCYQDTILWKDIFHKNNQLALTLIDTNRSRACHPCSPMCKGSRCWGESSEDCQSLTRTVCAGGCARCKGPLPTDCCHEQCAAGCTGPKHSDCLACLHFNHSGICELHCPALVTYNTDTFESMPNPEGRYTFGASCVTACPYNYLSTDVGSCTLVCPLHNQEVTAEDGTQRCEKCSKPCARVCYGLGMEHLREVRAVTSANIQEFAGCKKIFGSLAFLPESFDGDPASNTAPLQPEQLQVFETLEEITGYLYISAWPDSLPDLSVFQNLQVIRGRILHNGAYSLTLQGLGISWLGLRSLRELGSGLALIHHNTHLCFVHTVPWDQLFRNPHQALLHTANRPEDECVRRAQVTDKKIEPRGPTIKPCPPCKCPAPNLLGGPSVFIFPPKIKDVLMISLSPIVTCVVVDVSEDDPDVQISWFVNNVEVHTAQTQTHREDYNSTLRVVSALPIQHQDWMSGKEFKCKVNNKDLPAPIERTISKPKGSVRAPQVYVLPPPEEEMTKKQVTLTCMVTDFMPEDIYVEWTNNGKTELNYKNTEPVLDSDGSYFMYSKLRVEKKNWVERNSYSCSVVHEGLHNHHTTKSFSRTPGK
notes: also called P-HER2 variant; capture reagent of the pertuzumab ELISA
B6: Trastuzumab coat reagent: recombinant HER2 extracellular domains I, III, IV fused to a murine Fc; domain II is replaced by structurally related domain II of … (Fc fusion)
chain: KYALADASLKMADPNRFRGKDLPVLDQLLEAASTQVCTGTDMKLRLPASPETHLDMLRHLYQGCQVVQGNLELTYLPTNASLSFLQDIQEVQGYVLIAHNQVRQVPLQRLRIVRGTQLFEDNYALAVLDNGDPLNNTTPVTGASPGGLRELQLRSLTEILKGGVLIQRNPQLCYQDTILWKDIFHKNNQLALTLIDTNRSRACHPCSPMCKGSRCWGESSEDCQKLTKIICAQQCSGRCRGKSPSDCCHNQCAAGCTGPRESDCLVCRKFRDEATCKDTCPPLMLYNPTTYQMDVNPEGKYSFGATCVKKCPRNYVVTDHGSCVRACGADSYEMEEDGVRKCKKCEGPCRKVCYGLGMEHLREVRAVTSANIQEFAGCKKIFGSLAFLPESFDGDPASNTAPLQPEQLQVFETLEEITGYLYISAWPDSLPDLSVFQNLQVIRGRILHNGAYSLTLQGLGISWLGLRSLRELGSGLALIHHNTHLCFVHTVPWDQLFRNPHQALLHTANRPEDECVGEGLACHQLCARGHCWGPGPTQCVNCSQFLRGQECVEECRVLQGLPREYVNARHCLPCHPECQPQNGSVTCFGPEADQCVACAHYKDPPFCVARCPSGVKPDLSYMPIWKFPDEEGACQPCPINCTHSCVDLDDKGCPAEQRRAQVTDKKIEPRGPTIKPCPPCKCPAPNLLGGPSVFIFPPKIKDVLMISLSPIVTCVVVDVSEDDPDVQISWFVNNVEVHTAQTQTHREDYNSTLRVVSALPIQHQDWMSGKEFKCKVNNKDLPAPIERTISKPKGSVRAPQVYVLPPPEEEMTKKQVTLTCMVTDFMPEDIYVEWTNNGKTELNYKNTEPVLDSDGSYFMYSKLRVEKKNWVERNSYSCSVVHEGLHNHHTTKSFSRTPGK
notes: also called T-HER2 variant; capture reagent of the trastuzumab ELISA

Experiment [1] addresses B6. The experiment can be described thus: trastuzumab ELISA specificity test; sample Pertuzumab IV.
Experiment [2] concerns the target B6. Description: trastuzumab ELISA specificity test, highest assay concentration, duplicate, OD(405 nm)-OD(490 nm). On the technique in general: In an ELISA, binding on a coated surface is turned into a signal by an enzyme label.
Experiment [3] concerns the target B5. Description: pertuzumab ELISA specificity test, highest assay concentration, duplicate, OD(405 nm)-OD(490 nm).
Experiment [4] addresses B2. Description: pertuzumab ELISA specificity test; sample Vorhyaluronidase Alfa.
In experiment [5] the target is B4. Description: pertuzumab ELISA specificity test.
For experiment [6], the target named is B3. The experiment can be described thus: pertuzumab ELISA specificity test.
Experiment [7] has as its target B4. The experiment can be described thus: trastuzumab ELISA specificity test.
The target in experiment [8] is B3. Description: trastuzumab ELISA specificity test.
The target in experiment [9] is B2. Description: trastuzumab ELISA specificity test; sample rHuPH20-Containing FDC LD Formulation Buffer.

Consider B1, for which the binding result in experiment [1] is “no binding”.

Regarding B2, the “OD Mean of Replicates” value in experiment [2] amounted to 0.03 OD; in [3], 0.07 OD.

Take B3: the “OD Mean of Replicates” value in experiment [2] is 0.03 OD; in [3], 0.07 OD.

For the molecule B4, the entries for the “OD Mean of Replicates” value in experiment [2] and in [3] were 0.04 OD and 0.08 OD, respectively.

Turning to B5, the binding result (in experiment [4]; in the experiment with Filgrastim [5]; with PEG-Filgrastim [6]) was “no binding” each time.

B6: the binding result (in the experiment with Filgrastim [7]; with PEG-Filgrastim [8]; in [9]) was “no binding” throughout.
